Test results reported in paper PMC4547048.

Substrate: CC(C)C[C@H](N)C(=O)Nc1ccc([N+](=O)[O-])cc1
Assay: purified protein
Type: biochemical, Anopheles gambiae
Conditions: 1 mM MnCl2, pH 7.5, 10 mM Tris-HCl, 150 mM NaCl, 25 °C

B1: AnAPN1 (near full-length recombinant, rFL-APN1) (Anopheles gambiae) (protein)
chain: PPYKSSGIYEEEPQLPGASDLSGGVASDEIGVAPAQAVDERYRLPTTSIPIHYDLHLRTEIHRNERTFTGTVGIQLQVVQATDKLVMHNRGLVMSSAKVSSLPNGVTGAPTLIGDVQYSTDTTFEHITFTSPTILQPGTYLLEVAFQGRLATNDDGFYVSSYVADNGERRYLATTQFESTSARMAFPCYDEPGLKATFTVSITHSLSYKAISNMPQKTTTDIETDMRTTFFEKTPAMSTYLLAFVVSDFQLRLSGAQRVYVRPNAFNEATFALEAGVKILKVLDDHLGIPYDTYMPKLDQIAIPDFAAGAMENWGLVTYREQALLFNPAVSTYRGKTNVATTIAHEYAHQWFGNLVSPEWWEYIWLNEGFATLYEFYALDMAYPGQEYWELFNQQVIQYAMGQDGQASTRPMNWNAATPGEISALFDRVAYDKSGSVLNMMRHVLGDDNWKAGLKAYLTDRALQGAVDEQLYAGLQSAIEGKGVLPNGVTVAQIMRTWTNEAGYPVLNVRRSYDTGDVIISQERFYNDRKVPNTNIWMIPYNYVHQAKADFNEFDDFQWLATKAARIETTVPANEWIVFNKQQVGYYRVNYDEHNWELITNALHENWASIHRLNRAQLIDDAYWLARSGRLDLRVALRFMTYLRNEREYAPWTAANVALTYFNNRLRGTAEYHNFLIFVDALIEDIYSLLTIDAVSPDDTLLHKYLVQTISTWACSMGYTDCLMKTAALLKAEASGTGPAVHPDIASVTYCYGMRSALESEFQYLYRKMMNSKNLAERTMLIDSLGCSNNKEFLKAFLTTALGSGTGVEINYRADERRRVVQAIYSGGRTGVDALIEFLMDPALVNEFVSTLSTSTLNSALSAIASRTNNVEEMNKLNALITALGSRVNSQTAANLRTTAQANLDWVNGFEGLMLSNFLAE
Km: 1.84 mM
